Key:
[1] = system: white mice (male mice of type NMRI); assay: Blood sugar level in mice after intravenous injection (anthrone method); assay type: in vivo; details: i.v.; for blood sugar level reduced to % of the normal value: in 30 minutes
Experimental: Test animals were white mice (male mice of type NMRI) having a body weight of 25±2 g. The solutions below were administrated intravenously in the tails of the mice. There were three groups of mice, in which there were three mice each. The solutions contained:
Group A: 0.5 ml 0.9% (w/v) NaCl
Group B: 0.5 ml 0.9% (w/v) NaCl and 5 ug native insulin
Group C: 0.5 ml 0.9% (w/v) NaCl 50 ug insulin-2-pyridyl disulfide derivative synthesized as above.
Blood samples were collected in micro capillary tubes from the corners of the eyes of the mice. The samples were collected 10 minutes before injection and 30, 120, 240 minutes, 7, 15 and 24 hours on injection. The anthrone method was used to determine the carbohydrate content of the samples (Burt J R; Anal Biochem, 9 (1964) p 293-302).

[2] = Half-life of circulating catalase activity in burnt rats (Clark electrode); assay type: in vivo, rats (Sprague Dawley); details: i.v., 20,000 IU, hind paws burnt 5 minutes after injection, catalase activity in blood
Experimental: (§1) Test animals were white rats (Sprague Dawley) of a body weight of 300-350 g. Two groups of rats (6 individuals each) were separately injected intravenously with 0.5 ml 0.9% (w/v) NaCl containing 20,000 international units (IU) native catalase respectively an amount of catalase-2-dipyridyl disulfide derivative (synthesized as above) corresponding to 20,000 (IU) native catalase. 5 minutes after injection hind paws of all the rats were burnt by dipping into circulating water of +55° C. for 20 seconds. 0.4 ml blood was collected from the left arteriae carotis at the time intervals 2, 15, 30, 60, 120 and 180 minutes. The catalase activity in each blood sample was determined as the amount of oxygen formed per time unit. Measurements were carried out with a Clark electrode by standard procedures.

[3] = system: white rats (Sprague Dawley), burnt hind paws; assay: Oedema of the burn, measured as the volume of the paw; assay type: in vivo; details: i.v., amount corresponding to 20,000 IU, in 2 hours
Experimental: as §1
The oedema of the burn was measured as the volume of the paw. This volume was measured as corresponding deplacement at even time cuts during 3 hours.

[4] = Determination of half-life for circulation in rabbit (superoxide dismutase activity of blood samples); assay type: in vivo; details: i.v., 1 ml of 10 mg/ml
Experimental: Test animals were white rabbits having a body weight of 2-5 kg. 1 ml native superoxide dismutase (yeast superoxide dismutase, Carlsberg Laboratories, Copenhagen, Denmark) (10 mg/ml) or 1 ml superoxide dismutase-2-pyridyl disulfide derivative (10 mg/ml) was injected intravenously into the rabbits. Both of the solutions were prepared from 0.9% (w/v) NaCl. Blood samples were collected from the ear lobes of the rabbits at the time intervals 5, 10, 20, 30, 60, 90, 120, 150, 180 and 210 minutes. The superoxide dismutase activity of the samples was determined according to Crapo J D, McCord J M and Fridovich I; Methods of Enzymology 53 (1978) p 382-393.

native insulin: native insulin, underivatized base compound used as comparison
time until blood sugar level reached the normal value (value before injection) ([1]; 5 ug native insulin (group B)): 7 h
blood sugar level reduced to % of the normal value ([1]; 5 ug native insulin (group B)): 40 % of the normal value

insulin-2-pyridyl disulfide derivative: insulin reacted with N-succinimidyl-3-(2-pyridyldithio)-propionate (SPDP)
time until blood sugar level returned to normal values ([1]; 50 ug derivative (group C)): > 24 h
blood sugar level reduced to % of the normal value ([1]; 50 ug derivative (group C)): 40 % of the normal value

B1: native catalase: catalase of bovine liver (Sigma C-100), further purified by gel filtration (protein, UniProt P00432 2-527, looked up)
Catalase: ADNRDPASDQMKHWKEQRAAQKPDVLTTGGGNPVGDKLNSLTVGPRGPLLVQDVVFTDEMAHFDRERIPERVVHAKGAGAFGYFEVTHDITRYSKAKVFEHIGKRTPIAVRFSTVAGESGSADTVRDPRGFAVKFYTEDGNWDLVGNNTPIFFIRDALLFPSFIHSQKRNPQTHLKDPDMVWDFWSLRPESLHQVSFLFSDRGIPDGHRHMNGYGSHTFKLVNANGEAVYCKFHYKTDQGIKNLSVEDAARLAHEDPDYGLRDLFNAIATGNYPSWTLYIQVMTFSEAEIFPFNPFDLTKVWPHGDYPLIPVGKLVLNRNPVNYFAEVEQLAFDPSNMPPGIEPSPDKMLQGRLFAYPDTHRHRLGPNYLQIPVNCPYRARVANYQRDGPMCMMDNQGGAPNYYPNSFSAPEHQPSALEHRTHFSGDVQRFNSANDDNVTQVRTFYLKVLNEEQRKRLCENIAGHLKDAQLFIQKKAVKNFSDVHPEYGSRIQALLDKYNEEKPKNAVHTYVQHGSHLSAREKANL
half-life for circulating catalase [2]: 9 min

B2: catalase-2-pyridyl disulfide: purified catalase of bovine liver reacted with SPDP (protein, UniProt P00432 2-527, looked up)
Catalase: B1 Catalase
modifications: SPDP 2-pyridyl disulfide derivative
notes: purified catalase of bovine liver reacted with SPDP
swelling of the burnt paws compared to native catalase [3]: significantly decreased swelling
half-life for circulating catalase [2]: 34 min

B3: native superoxide dismutase: yeast superoxide dismutase, Carlsberg Laboratories, Copenhagen, Denmark (protein, UniProt P00445 2-154, looked up)
Superoxide dismutase [Cu-Zn]: VQAVAVLKGDAGVSGVVKFEQASESEPTTVSYEIAGNSPNAERGFHIHEFGDATNGCVSAGPHFNPFKKTHGAPTDEVRHVGDMGNVKTDENGVAKGSFKDSLIKLIGPTSVVGRSVVIHAGQDDLGKGDTEESLKTGNAGPRPACGVIGLTN
half-life for circulation [4]: about 10 minutes

B4: superoxide dismutase-2-pyridyl disulfide derivative: superoxide dismutase from yeast reacted with SPDP (protein, UniProt P00445 2-154, looked up)
Superoxide dismutase [Cu-Zn]: B3 Superoxide dismutase [Cu-Zn]
modifications: SPDP 2-pyridyl disulfide derivative
notes: superoxide dismutase from yeast reacted with SPDP
half-life for circulation [4]: 60 min
